Columns and labels:
[1] = tested on: IL-11 signalling; details: binds IL-11Rα, engagement of gp130 homodimer fails; cited from earlier work
[2] = tested on: Primary human hepatic stellate cells; test: IL-11 stimulation in the presence of DMSO or U0126, western blot; assay type: cell-based; details: IL-11 treatment 24 hours
Description: FIG. 21. Western blot image showing the levels of p-ERK, ERK, p-P90RSK, P90RSK, p-LKB1, LKB1, p-AMPK, AMPK, p-mTOR, mTOR, p-p70S6K, p70S6K, p-S6RP, S6RP, SMA, and GAPDH in primary human hepatic stellate cells that are unstimulated (BL+DMSO) or stimulated for 24 hours with IL11 in the presence DMSO or U0126 (10 μM).
(§1) Primary human hepatic stellate cells and human hepatocytes were stimulated for 24 hours with IL-11 in the presence DMSO or U0126. As discussed in Example 4.4, the inventors observed that IL-11 treatment stimulates p-mTOR, p-70S6K and p-S6RP. In line with the inventors' hypothesis, administration of U0126 to IL-11-stimulated cells prevents ERK-mediated inactivation of LKB1/AMPK that stops IL11-induced mTORC1/P70S6K activation (FIG. 21 and FIG. 22, respectively).

[3] = tested on: human hepatocytes; test: IL-11 stimulation of cells overexpressing wild-type LKB1, western blot; assay type: cell-based; details: IL11 10 ng/ml, 2 hours
Description: (§2) FIG. 17. Human hepatic stellate cells (17A) and hepatocytes (17B) were infected with AAV8 encoding human LKB1 (multiplicity of infection=20) for 24 hours and then stimulated with IL11 (10 ng/ml) for 2 hours. Cell lysates were immunoblotted for the proteins shown.
(§3) Human hepatic stellate cells (FIG. 17A) and human hepatocytes (FIG. 17B) were engineered to overexpress the wild-type LKB1 and a double mutant S325A, S428A (DM-LKB1). FIGS. 17A and 17B confirm that stimulation with IL-11 induces phosphorylation at […] in the WT LKB1 cells. As expected, phosphorylation is not observed in the double mutant LKB1 cells.

[4] = tested on: Human hepatic stellate cells; test: as above; assay type: cell-based; details: IL11 10 ng/ml, 2 hours
Description: as §2, §3

[5] = biological target: T1, IL-11Rα (Homo sapiens, UniProt Q14626); details: low affinity binding to IL-11Rα alone; cited from earlier work
T1 sequence (Q14626 23-422): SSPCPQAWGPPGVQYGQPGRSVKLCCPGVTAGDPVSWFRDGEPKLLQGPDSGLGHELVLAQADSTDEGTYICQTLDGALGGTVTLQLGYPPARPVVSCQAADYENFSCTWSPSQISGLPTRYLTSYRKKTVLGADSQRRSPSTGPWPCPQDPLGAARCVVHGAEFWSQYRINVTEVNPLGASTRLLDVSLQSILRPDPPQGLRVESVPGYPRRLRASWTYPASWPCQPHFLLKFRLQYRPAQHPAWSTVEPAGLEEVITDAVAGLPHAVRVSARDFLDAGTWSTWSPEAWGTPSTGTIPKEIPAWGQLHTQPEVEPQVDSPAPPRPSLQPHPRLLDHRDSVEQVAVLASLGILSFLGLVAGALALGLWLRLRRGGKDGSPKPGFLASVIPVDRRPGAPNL

[6] = tested on: human hepatocytes; test: IL-11 stimulation in the presence of DMSO or U0126, western blot; assay type: cell-based; details: IL-11 treatment 24 hours
Description: FIG. 22. Western blot image showing the levels of p-ERK, ERK, p-P90RSK, P90RSK, p-LKB1, LKB1, p-AMPK, AMPK, p-mTOR, mTOR, p-p70S6K, p70S6K, p-S6RP, S6RP in primary human hepatocytes that are unstimulated (BL+DMSO) or stimulated for 24 hours with IL11 in the presence DMSO or U0126 (10 μM).
as §1

[7] = tested on: Primary human cardiac fibroblasts; test: IL-11 stimulation time course, western blot; assay type: cell-based; details: IL-11 10 ng/ml, 15 mins, 2, 4, 6 or 24 hours
Description: FIG. 15. Western blot image showing the levels of p-LKB1, LKB1, p-mTOR, mTOR in primary human cardiac fibroblasts that are stimulated with IL11 (10 ng/ml), for 15 minutes, 2 hours, 4 hours, 6 hours, or 24 hours.
Primary human cardiac fibroblasts were stimulated with IL-11 (10 ng/ml), for 15 mins, 2, 4, 6, or 24 hours and the levels of phosphorylated LKB1 (p-LKB1), LKB1, phosphorylated mTOR (p-mTOR) and mTOR were measured by western blot.

[8] = tested on: A549 cells; test: IL-11 stimulation of A549 cells overexpressing human LKB1, western blot; assay type: cell-based; details: IL11 10 ng/ml; AAV8 human LKB1
Description: FIG. 16. IL-11 stimulates ERK-mediated phosphorylation of LKB1 serine 325(S325) and P90RSK-mediated phosphorylation of LKB1 serine 428 (S428) with subsequent inactivation of AMPK and activation of mTOR, P70RSK and S6RP. (16A) A549 cells were infected with AAV8 encoding human LKB1 (multiplicity of infection=20) for 24 hours and then stimulated with IL11 (10 ng/ml) for the indicated times (15 minutes, 2 hours, 4 hours, 6 hours, or 24 hours). Cell lysates were immunoblotted for the proteins shown. (16B) Schematic of activation of ERK (directly) and P90RSK (indirectly) by IL-11-mediated signalling and downstream effects on hallmarks of ageing. P or p; phosphorylated amino acid.
To determine the mechanism through which IL-11 stimulates phosphorylation of LKB1, A549 cells were engineered to overexpress human LKB1 (AA8-LKB1 in FIG. 16A) and treated with IL-11.

[9] = tested on: Primary human hepatic stellate cells (HSCs); test: Increasing concentrations of IL-11 or IL-6, western blot p-LKB1/p-AMPK; assay type: cell-based; details: 24 hours; p-LKB1, p-AMPK
Description: (§4) FIG. 23. Western blot image showing the levels of p-LKB1, LKB1, p-AMPK, AMPK in primary human hepatocytes or primary human hepatic stellate cells that are unstimulated (BL) or stimulated for 24 hours with increasing concentrations (1.25, 2.5, 5, 10 or 20 ng/ml) of IL-11 or IL-6.
(§5) Primary human hepatic stellate cells (HSCs) and human hepatocytes were stimulated for 24 hours with increasing concentrations (1.25-20 ng/ml) of IL-11 or IL-6. […] The effect of IL-11 on these markers is observable at concentrations as low as 1.25 ng/ml in both HSCs and hepatocytes.

[10] = tested on: human hepatocytes; test: as above; assay type: cell-based; details: 24 hours; p-LKB1, p-AMPK
Description: as §4, §5

[11] = biological target: T2, Mouse IL-11 protein in tissue lysates of C57Bl/6J mice (mouse, UniProt P47873 22-199, limits assumed); test: western blot of mouse liver lysates (SDS-PAGE, PVDF), X203 as primary antibody, anti-mouse HRP and ECL detection
T2 sequence (looked up): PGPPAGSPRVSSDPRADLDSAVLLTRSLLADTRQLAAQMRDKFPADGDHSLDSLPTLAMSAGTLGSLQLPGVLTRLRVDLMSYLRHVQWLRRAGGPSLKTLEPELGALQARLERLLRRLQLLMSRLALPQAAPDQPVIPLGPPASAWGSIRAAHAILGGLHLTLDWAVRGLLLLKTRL
Description: Briefly, livers were harvested from mice and homogenized in radioimmunoprecipitation assay (RIPA) lysis and Extraction Buffer (ThermoFisher Scientific) containing protease and phosphatase inhibitors (Roche), followed by centrifugation to clear the lysate. Protein concentrations were determined by Bradford assay (Bio-Rad). Equal amounts of protein lysates were separated by SDS-PAGE, transferred to PVDF membranes, blocked for 1 h with 3% BSA, and incubated overnight with X203 (1:2000) or anti-GAPDH (1:1000, CST). Protein bands were visualized using the ECL detection system (Pierce) with the appropriate secondary antibodies: anti-mouse HRP and anti-rabbit HRP (1:5000, CST). […]

B1: W147A: IL-11 antagonist in which amino acid 147 is mutated from a tryptophan to an alanine (protein, UniProt P20809 22-199, looked up, variant W147A)
Interleukin-11: PGPPPGPPRVSPDPRAELDSTVLLTRSLLADTRQLAAQLRDKFPADGDHNLDSLPTLAMSAGALGALQLPGVLTRLRADLLSYLRHVQWLRRAGGSSLKTLEPELGTLQARLDRLLRRLQLLMSRLALPQPPPDPPAPPLAPPSSAAGGIRAAHAILGGLHLTLDWAVRGLLLLKTRL
**Q.** With B1 as the molecule, how does the “blockade of IL-11 signalling” value [1] read?
**A.** efficient blockade

B2: IL-11: Interleukin 11, pleiotropic cytokine of the IL-6 family, used to stimulate cells (protein)
chain: PGPPAGSPRVSSDPRADLDSAVLLTRSLLADTRQLAAQMRDKFPADGDHSLDSLPTLAMSAGTLGSLQLPGVLTRLRVDLMSYLRHVQWLRRAGGPSLKTLEPELGALQARLERLLRRLQLLMSRLALPQAAPDQPVIPLGPPASAWGSIRAAHAILGGLHLTLDWAVRGLLLLKTRL
**Q.** Which “p-mTOR, p-70S6K and p-S6RP” value [2] does the source give for B2 here?
**A.** stimulates

**Q.** And the “phosphorylation at S428 and S325 in the WT LKB1 cells” value [3]?
**A.** induces

**Q.** And the “phosphorylation at S428 and S325 in the WT LKB1 cells” value [4]?
**A.** induces

**Q.** And the Kd [5]?
**A.** ~0.022 µM

**Q.** What about the “p-mTOR, p-70S6K and p-S6RP” value [6] of the same molecule?
**A.** stimulates

**Q.** And the “level of phosphorylated LKB1 and phosphorylated mTOR” value [7]?
**A.** increases

**Q.** What about the “ERK-mediated phosphorylation of LKB1 Serine 325 (S325) and P90RSK-mediated phosphorylation of LKB1 serine 428 (S428)” value [8] of the same molecule?
**A.** stimulates

**Q.** And the “lowest concentration at which the effect on these markers is observable” value [9]?
**A.** 1.25 ng/mL

**Q.** And the “lowest concentration at which the effect on these markers is observable” value [10]?
**A.** 1.25 ng/mL

B3: X203, mouse anti-mouse IL-11 IgG (anti-IL-11 antagonist antibody) (antibody, V domains shown)
VH: EVQLQQSGPELVKPGASVKIPCKASGYTFTDYNMDWVKQSHGKSLEWIGDINPHNGGPIYNQKFTGKATLTVDKSSSTAYMELRSLTSEDTAVYYCARGELGHWYFDVWGTGTTVTVSS
VL: DIVLTQSPASLAVSLGQRATISCRASKSVSTSGYSYIHWYQQKPGQPPKLLIYLASNLDSGVPARFSGSGSGTDFTLNIHPVEEEDAATYYCQHSRDLPPTFGGGTKLEIK
notes: also called Enx203; anti-IL11 (X203)
**Q.** Does B3 bind [11]?
**A.** binds

From US20230399393A1, “METHODS TO EXTEND HEALTH-SPAN AND TREAT AGE-RELATED DISEASES” (National University of Singapore, priority 2020, published 2023)
